Laboratory results as given in the FLAb antibody collection (doi:10.1101/2023.12.08.570889).

Target: TNFRSF9, Q07011
Experiment: Kd (SPR)

Row | Kd | Binder
1 | 225 nM | unnamed (protein) chain 1: EVQLVQSGAEVKKPGESLRISCKGSGYSFSTYWISWVRQMPGKGLEWMGKIYPGDSYTNYSPSFQGQVTISADKSISTAYLQWSSLKASDTAMYYCTRGSGLFDYWGQGTLVTVSS chain 2: SYELTQPPSVSVSPGQTASITCSGDNIGDQYAHWYQQKPGQSPVLVIYQDKNRPSGIPERFSGSNSGNTATLTISGTQAMDEADYYCATYTGFGSLAVFGGGTKLTVL
2 | 92.3 nM | unnamed (protein) chain 1: EVQLVQSGAEVKKPGESLRISCKGSGYSFSTYWISWVRQMPGKGLEWMGKIYPGDSYTNYSPSFQGQVTISADKSISTAYLQWSSLKASDTAMYYCTRGVGIFDYWGQGTLVTVSS chain 2: SYELTQPPSVSVSPGQTASITCSGDNIGDQYAHWYQQKPGQSPVLVIYQDKNRPSGIPERFSGSNSGNTATLTISGTQAMDEADYYCATYTGFGSLAVFGGGTKLTVL
3 | 141 nM | unnamed (protein) chain 1: EVQLVQSGAEVKKPGESLRISCKGSGYSFSTYWISWVRQMPGKGLEWMGKIYPGDSYTNYSPSFQGQVTISADKSISTAYLQWSSLKASDTAMYYCTRGVGLFDYWGQGTLVTVSS chain 2: SYELTQPPSVSVSPGQTASITCSGDNIGDQYAHWYQQKPGQSPVLVIYQDKNRPSGIPERFSGSNSGNTATLTISGTQAMDEADYYCATYTGFGSLAVFGGGTKLTVL
4 | 96.2 nM | unnamed (protein) chain 1: EVQLVQSGAEVKKPGESLRISCKGSGYSFSTYWISWVRQMPGKGLEWMGKIYPGDSYTNYSPSFQGQVTISADKSISTAYLQWSSLKASDTAMYYCTRGYGVFDYWGQGTLVTVSS chain 2: SYELTQPPSVSVSPGQTASITCSGDNIGDQYAHWYQQKPGQSPVLVIYQDKNRPSGIPERFSGSNSGNTATLTISGTQAMDEADYYCATYTGFGSLAVFGGGTKLTVL
5 | 92 nM | unnamed (protein) chain 1: EVQLVQSGAEVKKPGESLRISCKGSGYSFSTYWISWVRQMPGKGLEWMGKIYPGDSYTNYSPSFQGQVTISADKSISTAYLQWSSLKASDTAMYYCTRGTGIFDYWGQGTLVTVSS chain 2: SYELTQPPSVSVSPGQTASITCSGDNIGDQYAHWYQQKPGQSPVLVIYQDKNRPSGIPERFSGSNSGNTATLTISGTQAMDEADYYCATYTGFGSLAVFGGGTKLTVL
6 | 45 nM | unnamed (protein) chain 1: EVQLVQSGAEVKKPGESLRISCKGSGYSFSTYWISWVRQMPGKGLEWMGKIYPGDSYTNYSPSFQGQVTISADKSISTAYLQWSSLKASDTAMYYCARGWGIFDYWGQGTLVTVSS chain 2: SYELTQPPSVSVSPGQTASITCSGDNIGDQYAHWYQQKPGQSPVLVIYQDKNRPSGIPERFSGSNSGNTATLTISGTQAMDEADYYCATYTGFGSLAVFGGGTKLTVL
7 | 60.3 nM | unnamed (protein) chain 1: EVQLVQSGAEVKKPGESLRISCKGSGYSFSTYWISWVRQMPGKGLEWMGKIYPGDSYTNYSPSFQGQVTISADKSISTAYLQWSSLKASDTAMYYCARGWGLFDYWGQGTLVTVSS chain 2: SYELTQPPSVSVSPGQTASITCSGDNIGDQYAHWYQQKPGQSPVLVIYQDKNRPSGIPERFSGSNSGNTATLTISGTQAMDEADYYCATYTGFGSLAVFGGGTKLTVL
8 | 175 nM | unnamed (protein) chain 1: EVQLVQSGAEVKKPGESLRISCKGSGYSFSTYWISWVRQMPGKGLEWMGKIYPGDSYTNYSPSFQGQVTISADKSISTAYLQWSSLKASDTAMYYCARGIGLFDYWGQGTLVTVSS chain 2: SYELTQPPSVSVSPGQTASITCSGDNIGDQYAHWYQQKPGQSPVLVIYQDKNRPSGIPERFSGSNSGNTATLTISGTQAMDEADYYCATYTGFGSLAVFGGGTKLTVL
9 | 122 nM | unnamed (protein) chain 1: EVQLVQSGAEVKKPGESLRISCKGSGYSFSTYWISWVRQMPGKGLEWMGKIYPGDSYTNYSPSFQGQVTISADKSISTAYLQWSSLKASDTAMYYCARGWGVFDYWGQGTLVTVSS chain 2: SYELTQPPSVSVSPGQTASITCSGDNIGDQYAHWYQQKPGQSPVLVIYQDKNRPSGIPERFSGSNSGNTATLTISGTQAMDEADYYCATYTGFGSLAVFGGGTKLTVL
10 | 142 nM | unnamed (protein) chain 1: EVQLVQSGAEVKKPGESLRISCKGSGYSFSTYWISWVRQMPGKGLEWMGKIYPGDSYTNYSPSFQGQVTISADKSISTAYLQWSSLKASDTAMYYCTRGTGLFDYWGQGTLVTVSS chain 2: SYELTQPPSVSVSPGQTASITCSGDNIGDQYAHWYQQKPGQSPVLVIYQDKNRPSGIPERFSGSNSGNTATLTISGTQAMDEADYYCATYTGFGSLAVFGGGTKLTVL
11 | 86.1 nM | unnamed (protein) chain 1: EVQLVQSGAEVKKPGESLRISCKGSGYTFSSYWISWVRQMPGKGLEWMGKIYPGDSYTNYSPSFQGQVTISADKSISTAYLQWSSLKASDTAMYYCARGYGLFDYWGQGTLVTVSS chain 2: SYELTQPPSVSVSPGQTASITCSGDNIGDQYAHWYQQKPGQSPVLVIYQDKNRPSGIPERFSGSNSGNTATLTISGTQAMDEADYYCATYTGFGSLAVFGGGTKLTVL
12 | 95.6 nM | unnamed (protein) chain 1: EVQLVQSGAEVKKPGESLRISCKGSGYSFSTYWISWVRQMPGKGLEWMGKIYPGDSYTNYSPSFQGQVTISADKSISTAYLQWSSLKASDTAMYYCARGTGLFDYWGQGTLVTVSS chain 2: SYELTQPPSVSVSPGQTASITCSGDNIGDQYAHWYQQKPGQSPVLVIYQDKNRPSGIPERFSGSNSGNTATLTISGTQAMDEADYYCATYTGFGSLAVFGGGTKLTVL
13 | 95.4 nM | unnamed (protein) chain 1: EVQLVQSGAEVKKPGESLRISCKGSGYTFSSYWISWVRQMPGKGLEWMGKIYPGDSYTNYSPSFQGQVTISADKSISTAYLQWSSLKASDTAMYYCTRGYGIFDYWGQGTLVTVSS chain 2: SYELTQPPSVSVSPGQTASITCSGDNIGDQYAHWYQQKPGQSPVLVIYQDKNRPSGIPERFSGSNSGNTATLTISGTQAMDEADYYCATYTGFGSLAVFGGGTKLTVL
14 | 153 nM | unnamed (protein) chain 1: EVQLVQSGAEVKKPGESLRISCKGSGYSFSTYWISWVRQMPGKGLEWMGKIYPGDSYTNYSPSFQGQVTISADKSISTAYLQWSSLKASDTAMYYCARGVGLFDYWGQGTLVTVSS chain 2: SYELTQPPSVSVSPGQTASITCSGDNIGDQYAHWYQQKPGQSPVLVIYQDKNRPSGIPERFSGSNSGNTATLTISGTQAMDEADYYCATYTGFGSLAVFGGGTKLTVL
15 | 158 nM | unnamed (protein) chain 1: EVQLVQSGAEVKKPGESLRISCKGSGYSFSTYWISWVRQMPGKGLEWMGKIYPGDSYTNYSPSFQGQVTISADKSISTAYLQWSSLKASDTAMYYCARGVGIFDYWGQGTLVTVSS chain 2: SYELTQPPSVSVSPGQTASITCSGDNIGDQYAHWYQQKPGQSPVLVIYQDKNRPSGIPERFSGSNSGNTATLTISGTQAMDEADYYCATYTGFGSLAVFGGGTKLTVL
16 | 315 nM | unnamed (protein) chain 1: EVQLVQSGAEVKKPGESLRISCKGSGYSFSTYWISWVRQMPGKGLEWMGKIYPGDSYTNYSPSFQGQVTISADKSISTAYLQWSSLKASDTAMYYCARGHGVFDYWGQGTLVTVSS chain 2: SYELTQPPSVSVSPGQTASITCSGDNIGDQYAHWYQQKPGQSPVLVIYQDKNRPSGIPERFSGSNSGNTATLTISGTQAMDEADYYCATYTGFGSLAVFGGGTKLTVL
17 | 130 nM | unnamed (protein) chain 1: EVQLVQSGAEVKKPGESLRISCKGSGYSFSTYWISWVRQMPGKGLEWMGKIYPGDSYTNYSPSFQGQVTISADKSISTAYLQWSSLKASDTAMYYCSRGYGVFDYWGQGTLVTVSS chain 2: SYELTQPPSVSVSPGQTASITCSGDNIGDQYAHWYQQKPGQSPVLVIYQDKNRPSGIPERFSGSNSGNTATLTISGTQAMDEADYYCATYTGFGSLAVFGGGTKLTVL
18 | 33.4 nM | unnamed (protein) chain 1: EVQLVQSGAEVKKPGESLRISCKGSGYSFSTYWISWVRQMPGKGLEWMGKIYPGDSYTNYSPSFQGQVTISADKSISTAYLQWSSLKASDTAMYYCARGIGVFDYWGQGTLVTVSS chain 2: SYELTQPPSVSVSPGQTASITCSGDNIGDQYAHWYQQKPGQSPVLVIYQDKNRPSGIPERFSGSNSGNTATLTISGTQAMDEADYYCATYTGFGSLAVFGGGTKLTVL
19 | 128 nM | unnamed (protein) chain 1: EVQLVQSGAEVKKPGESLRISCKGSGYSFSTYWISWVRQMPGKGLEWMGKIYPGDSYTNYSPSFQGQVTISADKSISTAYLQWSSLKASDTAMYYCARGIGIFDYWGQGTLVTVSS chain 2: SYELTQPPSVSVSPGQTASITCSGDNIGDQYAHWYQQKPGQSPVLVIYQDKNRPSGIPERFSGSNSGNTATLTISGTQAMDEADYYCATYTGFGSLAVFGGGTKLTVL
20 | 39.7 nM | unnamed (protein) chain 1: EVQLVQSGAEVKKPGESLRISCKGSGYSFSTYWISWVRQMPGKGLEWMGKIYPGDSYTNYSPSFQGQVTISADKSISTAYLQWSSLKASDTAMYYCSRGYGIFDYWGQGTLVTVSS chain 2: SYELTQPPSVSVSPGQTASITCSGDNIGDQYAHWYQQKPGQSPVLVIYQDKNRPSGIPERFSGSNSGNTATLTISGTQAMDEADYYCATYTGFGSLAVFGGGTKLTVL
